In general, Kd refers to the constant that tells how readily two partners part at equilibrium. A word on the EC50: it is the concentration giving half of the maximal effect.

Assay [1] has as its target hMPV 130-BV (human metapneumovirus). In words: biolayer interferometry, hMPV 130-BV on anti-penta-HIS biosensors; unit inferred. Background: In BLI a coated tip is dipped into the sample, and binding shifts an interference pattern.
For assay [2], the target named is trimeric hMPV B2 F protein treated with trypsin (human metapneumovirus). The experiment in a line: ELISA on coated antigen, mAb titrated; panel hMPV B2 F trimer (trypsin), key 6. Background: An ELISA detects its analyte on a solid surface through an enzyme-linked reagent.
The target in assay [3] is monomeric hMPV B2 F protein treated with trypsin (human metapneumovirus). In words: ELISA on coated antigen, mAb titrated; panel hMPV B2 F monomer (trypsin), key 6.
Assay [4] concerns the target pre-fusion RSV F protein A2 SC-TM (respiratory syncytial virus) (UniProt P03420). The experiment in a line: ELISA on coated antigen, mAb titrated; EC50 box, key 6.

101F Fab had a Kd in assay [1] of 53 nM.

As for DS7 (antibody), the EC50 in assay [2] is 0.18 µg/mL; in assay [3], 0.1 µg/mL.

MPE8 (antibody) displayed an EC50 in assay [4] of 0.087 µg/mL.

The record behind these values is patent publication US20230085439A1.
